Among the data in patent CN107042090A are OD450 values, retold here.

The target in assay [1] is Myc-GST融合蛋白 (Myc标签与谷胱甘肽融合的蛋白). The assay is described as follows: ELISA, Myc-GST coated at 5 μg/mL, HRP anti-His secondary antibody; heat test at 80℃. (In general: An ELISA detects its analyte on a solid surface through an enzyme-linked reagent.)
Assay [2] addresses Myc-GST融合蛋白 (Myc标签与谷胱甘肽融合的蛋白). Nature of the assay: ELISA, Myc-GST coated at 5 μg/mL, HRP anti-His secondary antibody; heat test at 90℃.
Assay [3] has as its target Myc-GST融合蛋白 (Myc标签与谷胱甘肽融合的蛋白). Nature of the assay: ELISA, Myc-GST coated at 5 μg/mL, HRP anti-His secondary antibody; heat test at 70℃.

B1: 抗c-Myc标签单域重链抗体 (anti-c-Myc tag single-domain heavy-chain antibody) (VHH, not shown: small tags and cut ends)
VHH: QLQLVESGGGEVQAGGSLKLSCAASGSNVQISAMGWYRQVPGKQREFVASETNGGRIDYADFVEGRFTISRDRAKNTVYLQMTSLRPEDTAVYYCNAAPGGWYADLREEYWGKGTLVTVSS
Consider B1, for which the OD450 in assay [1] came out at 1.2 OD450; in assay [2] it was 1.1 OD450; in assay [3], 1.5 OD450.
